We go through two molecules from patent US20130071417A1 (GOVERNING COUNCIL OF THE UNIVERSITY OF TORONTO, published 2013).

B2: FLAG-tagged rCEA N (CEA residues 1-214 with His-tag and FLAG epitope) (other, human, UniProt P06731 35-248, looked up, not shown: small tags and cut ends)
chain: KLTIESTPFNVAEGKEVLLLVHNLPQHLFGYSWYKGERVDGNRQIIGYVIGTQQATPGPAYSGREIIYPNASLLIQNIIQNDTGFYTLHVIKSDLVNEEATGQFRVYPELPKPSISSNNSKPVEDKDAVAFTCEPETQDATYLWWVNNQSLPVSPRLQLSNGNRTLTLFNVTRNDTASYKCETQNPVSARRSDSVILNVLYGPDAPTISPLNTS
notes: range 1-214; Made in E. coli; The extra C-terminal CEA residues were added for stability and yield; also called FLAG-tagged rCEA N domain; FLAG-tagged N domain

Assay [1] deals with T1, His-tagged rCEA A3B3 domain (residues 445-656, C-terminal His-tag) (human, UniProt P06731 479-690).
T1 construct: also called rCEA A3B3 fragment
T1 sequence: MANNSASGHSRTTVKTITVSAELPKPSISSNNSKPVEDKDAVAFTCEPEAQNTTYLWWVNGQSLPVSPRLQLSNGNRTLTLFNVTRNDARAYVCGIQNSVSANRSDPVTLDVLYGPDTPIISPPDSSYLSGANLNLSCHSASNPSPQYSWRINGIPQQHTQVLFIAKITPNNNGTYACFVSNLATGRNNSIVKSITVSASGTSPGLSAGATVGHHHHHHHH
Briefly: ELISA; untagged rCEA N coated, His-tagged module in solution, anti-His HRP detection.

The target in assay [2] is B2. Briefly: ELISA; target coated (2 µg per well), FLAG-tagged rCEA N titrated, anti-FLAG M2 HRP detection. The method, then:
(§1) Briefly, 96-well flat-bottomed Falcon microtiter plates (Becton-Dickinson Biosciences; Franklin Lakes, N.J.) were coated with 2 μg of purified CEA modules or full length CEA per well. After blocking with PBS containing Tween (0.05% v/v) and bovine serum albumin (1% w/v), the plates were then incubated for one hour at room temperature with increasing concentrations of the FLAG-tagged rCEA N diluted in PBS-Tween (0.05%; 100 μL). The presence of bound FLAG-tagged rCEA was detected by incubating the plates for 1 hour at room temperature with horseradish peroxidase (HRP) coupled anti-FLAG monoclonal antibody M2 (1:5,000 dilution; Sigma-Aldrich). The chromogenic HRP substrate 3,3′,5,5′-tetramethylbenzidine (TMB; Sigma) was used to measure at 450 nm the amount of bound FLAG-tagged N domain.

The target in assay [3] is T2, full length tumour glycoform of human CEA (Sigma-Aldrich) (human, UniProt P06731 35-685, glycosylated (tumour glycoform)).
T2 construct: mature; Bought protein; also called FL-CEA; full length CEA
T2 sequence (looked up): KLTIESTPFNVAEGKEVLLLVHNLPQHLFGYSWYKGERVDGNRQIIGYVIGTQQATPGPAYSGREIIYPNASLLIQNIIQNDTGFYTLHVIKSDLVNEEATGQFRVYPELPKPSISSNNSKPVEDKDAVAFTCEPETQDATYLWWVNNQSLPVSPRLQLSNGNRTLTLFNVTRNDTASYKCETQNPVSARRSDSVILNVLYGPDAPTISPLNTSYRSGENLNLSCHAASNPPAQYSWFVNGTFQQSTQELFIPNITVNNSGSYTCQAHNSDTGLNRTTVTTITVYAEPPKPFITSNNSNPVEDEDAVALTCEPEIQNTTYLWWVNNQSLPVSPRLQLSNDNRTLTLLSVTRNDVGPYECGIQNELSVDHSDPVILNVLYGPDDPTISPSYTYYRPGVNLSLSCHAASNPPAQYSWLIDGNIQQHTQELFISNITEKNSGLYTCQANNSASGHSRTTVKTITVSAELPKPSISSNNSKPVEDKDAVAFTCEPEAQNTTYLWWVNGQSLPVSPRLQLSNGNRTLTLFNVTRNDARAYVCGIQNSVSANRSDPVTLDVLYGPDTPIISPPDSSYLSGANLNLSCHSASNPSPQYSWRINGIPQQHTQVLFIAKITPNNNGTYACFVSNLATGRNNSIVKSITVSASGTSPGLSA
The assay is described as above. As for the experimental part: as §1

For assay [4], the target named is T1, His-tagged rCEA A3B3 domain (residues …). The description is as above. As for the experimental part:
as §1

B1: untagged rCEA N domain (cleaved rCEA N, residues 1-132) (other)
chain: KLTIESTPFNVAEGKEVLLLVHNLPQHLFGYSWYKGERVDGNRQIIGYVIGTQQATPGPAYSGREIIYPNASLLIQNIIQNDTGFYTLHVIKSDLVNEEATGQFRVYPELPKPSISSNNSKPVEDKDAVAFT
notes: Made in E. coli, so it has no N-glycans; also called WT rCEA N domain; untagged WT rCEA N domain
Consider B1, for which the binding result in assay [1] and in assay [2] was “binds” throughout.

On to B2, for which the binding result in assay [3] and in assay [4] was “binds” throughout.
